Experimental data: US20060148057A1, “Thioredoxin mutants and uses thereof” (priority 2002, published 2006)

Legend:
ASK1 = experiment: Association of Trx with ASK1 in vivo in BAEC (co-immunoprecipitation); format: binding, Bovine; details: for association of Flag-Trx with HA-ASK1 after TNF treatment: TNF 10 ng/ml for 15 min; for binding of Flag-Trx to HA-ASK1: resting EC, co-immunoprecipitation
Method: Immunoprecipitation and immunoblotting EC after various treatments were washed twice with cold PBS and lysed in 1.5 ml of cold lysis buffer (50 mM Tris-HC, pH 7.6, 150 mM NaCl, 0.1% Triton X-100, 0.75% Brij 96, 10 μg/ml aprotinin, 10 μg/ml leupeptin, 2 mM PMSF, 1 mM EDTA) for 20 min on ice. Protein concentrations were determined with a Bio-Rad kit. For immunoprecipitation to analyze protein interaction in vivo, 400 μg of cell lysate supematant were incubated with 5 μg of the first protein-specific antiserum (e.g. anti-Trx from Medical & Biological Laboratory) for 2 h with 50 μl of GammaBind plus Sepharose. Immune complexes were collected after each immunoprecipitation by centrifugation at 14,000× g for 10 min followed by 4 washes with lysis buffer. The immune complexes were subjected to Western blot with the second protein (e.g., ASK1)-specific antibody (Santa Cruz Biotech, Santa Cruz, Calif.). The chemiluminescence was detected using an ECL kit according to the instructions of the manufacturer (Amersham Life Science, Arlington Heights, Ill.). For Flag-tagged and HA-tagged proteins, anti-Flag M2 antibody (Sigma) and anti-HA antibody (Roche Diagnostics) were used, respectively.
TNF dissociates wild type Trx but not Trx-C32S or Trx-C35Sfroin ASK1 in vivo. Trx-C32S and Trx-C35S were examiner to determine whether they constitutively bind to ASK1 in vivo. Regulation of ASK1 by Trx was first examined to determine if such regulation is ROS-dependent in EC. BAEC were either untreated or treated with N-acetyl-cysteine (Nac, 1 mM) or vehicle for 60 min prior to TNF-α (10 ng/ml) stimulation for 15 min. TNF-induced ASK1 activation was measured by an in vitro kinase assay using GST-MKK4 (JNKK1) fusion protein as a substrate. TNF activated ASK1 in EC (FIG. 5A). […] Association of ASK1 with Trx was easily detected in untreated EC cells (FIG. 5B, Ctrl). […] In contrast, Nac pretreatment prevented TNF-induced dissociation of ASK1 from Trx. Similar results were obtained in human EC (HUVEC).
To examine association of Trx mutants with ASK1 in vivo, the Flag-tagged Trx construct (WT, CS, C32S or C35S) was co-transfected with HA-ASK1 into BAEC and the interaction of these Trx proteins with ASK1 were examined by co-immunoprecipitation assay. As expected, Trx-WT, Trx-C32S and Trx-Trx-C35S (but not Trx-CS) bound to ASK1 in resting EC (FIG. 5C).

BAEC = experiment: GFP co-transfection killing assay, ASK1-induced EC death; format: cell-based, Bovine; details: for inhibitory effect on ASK1-induced apoptosis under TNF treatment: TNF 10 ng/ml
Method: Trx inhibits ASK1-induced JNK activation and caspase 3 activity. BAEC were co-transfected with ASK1 and Trx constructs in 1:1 ratio as indicated: control vector alone (Ctrl), ASK1 with VC, Trx-WT, Trx-CS, Trx-C32S or Trx-C35S. 24 h post-transfection, cell lysates were used to examine JNK and caspase 3 activity. […] JNK activity was measured by an in vitro kinase assay GST-c-Jun as a substrate. Trx expression was determined by Western blot anti-Flag. […] Caspase 3 activity was measured by Sigma's Caspase 3 Fluorometric Assay Kit in the absence or presence of caspase 3 inhibitor Ac-DEVD-CHO. Assay was performed as duplicates. Caspase 3 activities were normalized with the Ctrl group (as zero). Data are presented from mean of two independent experiments. […] 6-well BAEC were co-transfected with a GFP expression construct and ASK1/Trx constructs as indicated (1 μg GFP, 1 μg ASK1, 1 μg Trx, total DNA was kept to 3 μg by adding VC): control vector alone (Ctrl), ASK1 with VC, Trx-WT, Trx-CS, Trx-C32S or Trx-C35S. Cells were cultured in the presence or absence of TNF (10 ng/ml). 48 h after transfection, GFP-positive cells were counted as survival cells. The survival rate is shown (Ctrl group as 100%). Data are presented from mean of four independent experiments. […] BAEC were transfetced as in FIG. 6C. 6-well BAEC were transfetced with GFP (1 μg) and Trx -expressing construct (1 μg each) as indicated. 24 h after transfection, cells were either left untreated or treated with TNF (10 ng/ml) plus CHX (10 μg/ml) for 24 h. GFP-positive cells were counted as survival cells. […] Data are presented from mean of four independent experiments.
Quantitation of cell killing: Cell killing assay was performed as described previously with a modification (Slowik M R et al. Evidence that tumor necrosis factor triggers apoptosis in human endothelial cells by interleukin-1-converting enzyme-like protease- dependent and -independent pathways. Lab Invest. 77:257-67 (1997)). EC were transfected with a combination of GFP reporter plasmid and the control vector or experimental expression plasmids for ASK1 and Trx at 1:1 ratio as indicated. GFP-positive cells were visualized under a fluorescence microscope and counted as number of survival cells.
ASK1-induced EC death was measured by a GFP co-transfection killing assay as previously described with minor modifications (Slowik M R Evidence that tumor necrosis factor triggers apoptosis in human endothelial cells by interleukin-1-converting enzyme-like protease- dependent and -independent pathways. Lab Invest. 77:257-67 (1997)). Overexpression of ASK1 in EC (BAEC or HUVEC) induced 60% cell death at 48 h post-transfection, i.e., 40% of GFP-positive (survival) EC compared to the control cells (Ctrl as 100% survival, FIG. 6C).

ASK1, sequence (Q99683 whole entry, the tested form may be a part): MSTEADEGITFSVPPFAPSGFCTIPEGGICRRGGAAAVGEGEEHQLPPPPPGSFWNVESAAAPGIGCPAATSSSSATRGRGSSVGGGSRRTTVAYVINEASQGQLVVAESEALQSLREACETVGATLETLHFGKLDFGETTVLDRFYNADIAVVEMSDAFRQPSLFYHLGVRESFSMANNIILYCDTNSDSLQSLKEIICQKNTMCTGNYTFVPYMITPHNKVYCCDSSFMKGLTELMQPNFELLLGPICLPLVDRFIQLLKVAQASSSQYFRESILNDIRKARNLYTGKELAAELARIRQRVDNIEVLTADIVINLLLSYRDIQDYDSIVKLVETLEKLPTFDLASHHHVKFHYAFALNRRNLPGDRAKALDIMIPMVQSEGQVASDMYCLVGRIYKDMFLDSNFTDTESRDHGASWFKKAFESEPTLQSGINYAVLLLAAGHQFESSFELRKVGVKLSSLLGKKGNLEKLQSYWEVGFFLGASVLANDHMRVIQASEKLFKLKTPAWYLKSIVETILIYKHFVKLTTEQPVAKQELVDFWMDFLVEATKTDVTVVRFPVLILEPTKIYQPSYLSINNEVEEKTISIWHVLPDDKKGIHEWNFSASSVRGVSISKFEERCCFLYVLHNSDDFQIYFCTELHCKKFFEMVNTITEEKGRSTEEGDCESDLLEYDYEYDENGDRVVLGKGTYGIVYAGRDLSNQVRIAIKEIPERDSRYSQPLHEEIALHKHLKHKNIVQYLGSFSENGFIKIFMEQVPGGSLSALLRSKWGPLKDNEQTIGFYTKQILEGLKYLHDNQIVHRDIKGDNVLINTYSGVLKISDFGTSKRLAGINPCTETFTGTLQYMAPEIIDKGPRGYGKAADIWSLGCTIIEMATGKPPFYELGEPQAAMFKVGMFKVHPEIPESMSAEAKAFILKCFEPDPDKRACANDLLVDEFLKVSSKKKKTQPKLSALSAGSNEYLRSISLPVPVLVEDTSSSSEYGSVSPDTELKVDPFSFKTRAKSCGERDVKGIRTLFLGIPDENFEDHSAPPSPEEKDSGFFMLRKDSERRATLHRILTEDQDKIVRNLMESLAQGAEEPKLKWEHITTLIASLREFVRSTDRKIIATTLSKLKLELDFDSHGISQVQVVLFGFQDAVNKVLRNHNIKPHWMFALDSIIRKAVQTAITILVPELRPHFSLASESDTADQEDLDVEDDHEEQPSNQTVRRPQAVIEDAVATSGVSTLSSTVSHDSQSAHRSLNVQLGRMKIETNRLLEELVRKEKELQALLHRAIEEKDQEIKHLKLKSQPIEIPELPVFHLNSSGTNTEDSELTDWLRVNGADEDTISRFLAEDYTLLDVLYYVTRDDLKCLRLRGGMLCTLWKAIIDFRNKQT

Row | Molecule | association of Flag-Trx with HA-ASK1 after TNF treatment (ASK1) | binding of Flag-Trx to HA-ASK1 (ASK1) | ASK1-ΔN-induced apoptosis (BAEC) | inhibitory effect on ASK1-induced apoptosis under TNF treatment (BAEC)
1 | thioredoxin (protein, Flag tag or GST fusion, Flag-tagged or GST fusion) MVKQIESKTAFQEALDAAGDKLVVVDFSATWCGPCKMIKPFFHSLSEKYSNVIFLEVDVDDCQDVASECEVKCMPTFQFFKKGQKVGEFSGANKEKLEATINELV | completely dissociated | bound to ASK1 | did not inhibit | diminished the inhibitory effect
2 | Trx-C32S: C32S single mutant of Trx at the catalytic site, SEQ ID NO:2 (protein) MVKQIESKTAFQEALDAAGDKLVVVDFSATWSGPCKMIKPFFHSLSEKYSNVIFLEVDVDDCQDVASECEVKCMPTFQFFKKGQKVGEFSGANKEKLEATINELV | not reduced | bound to ASK1 |  | retained their inhibitory effects
3 | Trx-C35S: C35S single mutant of Trx at the catalytic site, SEQ ID NO:3 (protein) MVKQIESKTAFQEALDAAGDKLVVVDFSATWCGPSKMIKPFFHSLSEKYSNVIFLEVDVDDCQDVASECEVKCMPTFQFFKKGQKVGEFSGANKEKLEATINELV | not reduced | bound to ASK1 |  | retained their inhibitory effects
